The record followed here is article PMC4117528.

The nature of data set [1]: SEC; analytical Superdex 200 calibrated with globular proteins; 25 µM protein; 20 mM sodium phosphate, 50 mM NaCl pH 7.3, 1 mM DTT.
In data set [2] the target is PhaP from Azotobacter sp. FA8 (Azotobacter sp. FA8). As to the kind of experiment: SEC-MALS; 90° static light scattering (PD2010) with differential refractometer in tandem with analytical Superdex 200; 25 µM protein; 20 mM sodium phosphate pH 7.4, 150 mM NaCl, 1 mM DTT; average molecular weight of the oligomer.

Regarding PhaP from Azotobacter sp. FA8, the “apparent number of monomers (SEC, globular calibration)” value in data set [1] is reported as “This molecular weight corresponds to 9 monomers”. On to “PhaP from Azotobacter sp. FA8 (natural protein)”, for which the stoichiometry N in data set [2] is 4.
